Laboratory results from patent US20240101645A1 (HENRY M JACKSON FOUNDATION FOR THE ADVANCEMENT OF MILITARY …, published 2024).

Experiments:
[1] = target: SARS-CoV-2 S on pseudovirions (Wuhan Hu-1 / IL1/2020, last 18 amino acids removed) (SARS-CoV-2, UniProt P0DTC2 14-1273); assay: cell-based or functional assay
[2] = target: T1, HCoV-OC43 spike antigens (bead panel) (HCoV-OC43, UniProt P36334 14-1297); assay: multiplex bead assay
T1 sequence: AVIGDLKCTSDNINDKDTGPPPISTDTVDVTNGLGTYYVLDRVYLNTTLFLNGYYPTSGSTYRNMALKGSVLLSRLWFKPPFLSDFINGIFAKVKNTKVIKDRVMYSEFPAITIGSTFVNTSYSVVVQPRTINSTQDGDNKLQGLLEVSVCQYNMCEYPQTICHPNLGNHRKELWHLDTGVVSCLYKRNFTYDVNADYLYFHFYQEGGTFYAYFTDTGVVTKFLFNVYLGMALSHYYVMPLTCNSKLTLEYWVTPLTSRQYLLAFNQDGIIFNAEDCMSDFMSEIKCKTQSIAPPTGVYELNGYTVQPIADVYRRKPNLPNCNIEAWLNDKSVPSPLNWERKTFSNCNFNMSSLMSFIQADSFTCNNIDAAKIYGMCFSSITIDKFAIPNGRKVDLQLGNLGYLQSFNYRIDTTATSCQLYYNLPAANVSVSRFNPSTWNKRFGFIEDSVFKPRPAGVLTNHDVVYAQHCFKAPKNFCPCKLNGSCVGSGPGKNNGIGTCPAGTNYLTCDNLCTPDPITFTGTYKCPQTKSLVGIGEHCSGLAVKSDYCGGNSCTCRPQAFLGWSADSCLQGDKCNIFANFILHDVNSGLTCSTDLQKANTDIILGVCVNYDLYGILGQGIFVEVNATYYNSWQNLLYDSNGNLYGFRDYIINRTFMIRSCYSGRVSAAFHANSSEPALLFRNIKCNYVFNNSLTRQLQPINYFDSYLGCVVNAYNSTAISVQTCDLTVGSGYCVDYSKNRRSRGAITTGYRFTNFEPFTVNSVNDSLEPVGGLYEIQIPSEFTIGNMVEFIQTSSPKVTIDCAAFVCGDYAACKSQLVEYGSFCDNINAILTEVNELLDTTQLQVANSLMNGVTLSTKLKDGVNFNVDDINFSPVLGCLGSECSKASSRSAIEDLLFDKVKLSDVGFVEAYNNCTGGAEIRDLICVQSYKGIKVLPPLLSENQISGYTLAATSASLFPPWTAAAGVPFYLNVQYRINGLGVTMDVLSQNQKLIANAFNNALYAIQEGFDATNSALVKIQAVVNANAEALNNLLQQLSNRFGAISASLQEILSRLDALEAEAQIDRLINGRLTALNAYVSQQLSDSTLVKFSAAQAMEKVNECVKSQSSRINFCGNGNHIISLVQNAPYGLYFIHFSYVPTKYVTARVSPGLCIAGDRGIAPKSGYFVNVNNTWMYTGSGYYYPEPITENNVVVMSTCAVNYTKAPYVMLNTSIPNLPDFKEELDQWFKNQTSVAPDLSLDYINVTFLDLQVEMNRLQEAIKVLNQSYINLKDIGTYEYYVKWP

[3] = target: T2, HCoV-NL63 spike antigens (bead panel) (HCoV-NL63, UniProt Q6Q1S2 19-1296); assay: multiplex bead assay
T2 sequence: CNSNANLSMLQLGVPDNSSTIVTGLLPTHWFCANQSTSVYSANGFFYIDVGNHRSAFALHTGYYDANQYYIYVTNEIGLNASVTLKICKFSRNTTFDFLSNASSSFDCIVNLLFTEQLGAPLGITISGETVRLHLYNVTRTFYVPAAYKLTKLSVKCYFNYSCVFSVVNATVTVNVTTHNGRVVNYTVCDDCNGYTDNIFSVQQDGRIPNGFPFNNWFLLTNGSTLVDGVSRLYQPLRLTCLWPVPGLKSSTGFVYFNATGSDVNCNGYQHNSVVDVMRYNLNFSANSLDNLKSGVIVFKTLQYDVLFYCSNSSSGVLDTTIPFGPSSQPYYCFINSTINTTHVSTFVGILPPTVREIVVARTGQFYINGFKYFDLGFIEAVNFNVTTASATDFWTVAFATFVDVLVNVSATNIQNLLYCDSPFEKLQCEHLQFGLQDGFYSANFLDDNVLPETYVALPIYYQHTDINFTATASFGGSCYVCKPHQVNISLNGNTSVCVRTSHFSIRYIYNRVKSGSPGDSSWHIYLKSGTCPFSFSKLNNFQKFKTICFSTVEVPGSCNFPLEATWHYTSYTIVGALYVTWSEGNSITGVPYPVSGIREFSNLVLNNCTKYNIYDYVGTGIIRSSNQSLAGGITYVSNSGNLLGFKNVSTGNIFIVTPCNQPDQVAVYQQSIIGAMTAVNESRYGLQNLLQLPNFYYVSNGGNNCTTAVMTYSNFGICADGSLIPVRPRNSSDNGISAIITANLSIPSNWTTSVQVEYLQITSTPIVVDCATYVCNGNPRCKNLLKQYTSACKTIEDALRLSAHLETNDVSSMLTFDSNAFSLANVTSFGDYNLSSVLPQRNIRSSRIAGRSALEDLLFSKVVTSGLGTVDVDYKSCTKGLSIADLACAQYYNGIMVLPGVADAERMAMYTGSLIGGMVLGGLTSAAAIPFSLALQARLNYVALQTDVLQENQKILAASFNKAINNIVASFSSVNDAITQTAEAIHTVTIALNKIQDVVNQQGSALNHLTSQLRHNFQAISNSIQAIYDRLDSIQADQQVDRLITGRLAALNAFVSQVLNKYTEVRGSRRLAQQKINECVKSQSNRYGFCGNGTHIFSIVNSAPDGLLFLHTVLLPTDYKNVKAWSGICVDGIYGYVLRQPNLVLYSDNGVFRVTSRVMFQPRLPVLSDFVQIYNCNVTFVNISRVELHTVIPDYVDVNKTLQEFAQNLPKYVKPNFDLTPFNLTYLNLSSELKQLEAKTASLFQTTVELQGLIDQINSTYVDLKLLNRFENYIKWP

[4] = target: T3, HCoV-229E spike antigens (bead panel) (HCoV-229E, UniProt P15423 16-1115); assay: multiplex bead assay
T3 sequence: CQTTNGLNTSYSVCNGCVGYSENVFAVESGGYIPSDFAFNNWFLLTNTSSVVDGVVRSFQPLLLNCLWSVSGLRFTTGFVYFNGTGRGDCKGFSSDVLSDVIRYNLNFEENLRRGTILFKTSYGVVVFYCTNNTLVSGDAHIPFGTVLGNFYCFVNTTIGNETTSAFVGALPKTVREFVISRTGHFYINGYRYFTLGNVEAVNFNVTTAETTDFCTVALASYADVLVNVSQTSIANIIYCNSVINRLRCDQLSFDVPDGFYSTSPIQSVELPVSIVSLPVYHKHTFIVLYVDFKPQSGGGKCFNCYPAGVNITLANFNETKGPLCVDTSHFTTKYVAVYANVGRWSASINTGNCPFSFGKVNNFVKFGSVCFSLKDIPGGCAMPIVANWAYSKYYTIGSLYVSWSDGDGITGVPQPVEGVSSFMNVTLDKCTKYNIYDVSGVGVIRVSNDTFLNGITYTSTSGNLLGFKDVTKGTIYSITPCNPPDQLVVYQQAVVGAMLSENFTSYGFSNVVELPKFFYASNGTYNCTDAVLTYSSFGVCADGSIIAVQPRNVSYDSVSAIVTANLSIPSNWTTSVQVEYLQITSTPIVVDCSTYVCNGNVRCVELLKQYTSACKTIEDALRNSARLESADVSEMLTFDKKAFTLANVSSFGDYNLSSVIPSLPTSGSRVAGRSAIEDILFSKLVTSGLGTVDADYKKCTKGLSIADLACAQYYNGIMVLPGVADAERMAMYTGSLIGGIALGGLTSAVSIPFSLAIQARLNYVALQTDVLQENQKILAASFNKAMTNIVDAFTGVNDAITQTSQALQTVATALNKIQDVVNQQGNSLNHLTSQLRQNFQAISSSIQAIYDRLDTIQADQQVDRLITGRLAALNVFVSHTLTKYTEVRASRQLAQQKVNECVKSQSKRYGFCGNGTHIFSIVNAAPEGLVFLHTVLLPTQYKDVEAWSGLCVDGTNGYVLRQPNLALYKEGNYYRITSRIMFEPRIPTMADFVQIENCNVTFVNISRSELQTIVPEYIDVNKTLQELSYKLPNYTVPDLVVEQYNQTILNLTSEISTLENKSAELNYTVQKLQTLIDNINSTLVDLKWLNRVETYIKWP

[5] = target: SARS-CoV-1 spike antigens (bead panel) (SARS-CoV-1, UniProt P59594 14-1195); assay: multiplex bead assay

B1: COV_1007 (antibody, V domains shown)
VH: QVTLKESGPVLVKPTETLTLTCTVSGFSLINARVGVSWIRQPPGKALDWLAHIFSSDEKSYSTSLKSRLTISKDTSKSQVVLTMTNMDPVDTATYYCARIRWLSSYYFDYWGQGTLVTVSS
VL: DIRMTQSPSSVSASVGDRVTITCRASQGISNWLAWYQQKPGKAPKLLIYAASSLQSGVPSRFSGGGSGTDFTLTISSLQPEDFATYYCQQANSFLLTFGGGTKVEIK
notes: human IgG1
Mean IC50, pSV neutralization [1]: 9 µg/ml | Mean IC80, pSV neutralization [1]: ≥ 25 µg/ml | binding result [2]: no binding | binding result [3]: no binding | binding result [4]: no binding | binding result [5]: no binding
